Literature values in US6153653A, “Choline compositions and uses thereof” (Protarga, Inc., priority 1997, dated 2000).

Conditions: relative to native tPA

B1: C84S tPA: tPA variants in which a cysteine at position 84 of the growth factor domain of native tPA is replaced by serine (protein, UniProt P00750 36-562, looked up, variant C84S)
Tissue-type plasminogen …: SYQVICRDEKTQMIYQQHQSWLRPVLRSNRVEYCWCNSGRAQCHSVPVKSCSEPRCFNGGTCQQALYFSDFVCQCPEGFAGKCSEIDTRATCYEDQGISYRGTWSTAESGAECTNWNSSALAQKPYSGRRPDAIRLGLGNHNYCRNPDRDSKPWCYVFKAGKYSSEFCSTPACSEGNSDCYFGNGSAYRGTHSLTESGASCLPWNSMILIGKVYTAQNPSAQALGLGKHNYCRNPDGDAKPWCHVLKNRRLTWEYCDVPSCSTCGLRQYSQPQFRIKGGLFADIASHPWQAAIFAKHRRSPGERFLCGGILISSCWILSAAHCFQERFPPHHLTVILGRTYRVVPGEEEQKFEVEKYIVHKEFDDDTYDNDIALLQLKSDSSRCAQESSVVRTVCLPPADLQLPDWTECELSGYGKHEALSPFYSERLKEAHVRLYPSSRCTSQHLLNRTVTDNMLCAGDTRSGGPQANLHDACQGDSGGPLVCLNDGRMTLVGIISWGLGCGQKDVPGVYTKVTNYLDWIRDNMRP
in vivo half life (in words) (in vivo): longer in vivo half life than native tPA
functional activity (in words): retains the functional activity of native tPA
